Reference: patent US20200157180A1 (JIANGSU HENGRUI MEDICINE, published 2020)

Tests used:
human TGF-β1 [1] = target: T1, human TGF-β1 (human, UniProt P01137 279-390); assay: ELISA, coated human TGF-β1 1 µg/ml, anti-human Fc-HRP, OD450
T1 construct: Bought protein
Description: a. 96-well plates were coated with 100 μl/well of human TGF-β1 (8915LC, CST) at a concentration of 1 μg/ml at 4° C. overnight.
d. The wells were washed 3 times with 250 μl 1×PBST, e. 100 μl of Anti-human Fc antibody-HRP (1:4000) was added to each well and incubated for 40 minutes at 37° C.

[2] = target: human PD-L1 on CHO/PD-L1 cells (human, UniProt Q9NZQ7 19-290); assay: cell-based or functional assay
human TGF-β1 [3] = target: T1, human TGF-β1; assay: cell-based or functional assay

T1 sequence (P01137 279-390 limits assumed): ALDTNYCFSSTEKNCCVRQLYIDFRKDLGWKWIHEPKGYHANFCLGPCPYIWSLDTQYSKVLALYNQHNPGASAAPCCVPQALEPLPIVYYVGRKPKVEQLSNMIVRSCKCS
Sequence of human PD-L1 on CHO/PD-L1 cells (Q9NZQ7 19-290): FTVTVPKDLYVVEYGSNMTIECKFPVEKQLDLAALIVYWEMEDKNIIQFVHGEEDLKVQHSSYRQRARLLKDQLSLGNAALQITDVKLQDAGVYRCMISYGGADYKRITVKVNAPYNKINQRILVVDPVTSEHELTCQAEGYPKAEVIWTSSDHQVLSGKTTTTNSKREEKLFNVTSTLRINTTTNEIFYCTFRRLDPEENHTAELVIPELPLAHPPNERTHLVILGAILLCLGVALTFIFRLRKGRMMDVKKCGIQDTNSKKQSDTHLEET

B1: PD-L1 antibody (antibody, human IgG4 S228P, kappa, F234A L235A, V domains shown)
VH: QVQLVQSGAEVKKPGASVKVSCKASGYTFTSYWMHWVRQAPGQGLEWMGRIGPNSGFTSYNEKFKNRVTMTRDTSTSTVYMELSSLRSEDTAVYYCARGGSSYDYFDYWGQGTTVTVSS
VL: DIVLTQSPASLAVSPGQRATITCRASESVSIHGTHLMHWYQQKPGQPPKLLIYAASNLESGVPARFSGSGSGTDFTLTINPVEAEDTANYYCQQSFEDPLTFGQGTKLEIKR
notes: Humanized IgG4 with S228P, F234A, L235A; last heavy chain residue K mutated to A; also called anti-PD-L1 antibody; PD-L1 antibody heavy chain: IgG4(AA)(S228P)
Question: Which results are given for B1?
Answer: binding result (human TGF-β1 [1]): no binding (tested: Log(pM) 6 (10^6 pM)); EC50 (read off the curve) [2]: ~0.3 nM; IC50, TGFβ-induced pSMAD3 reporter (luciferase) activity in HepG2 cells (human TGF-β1 [3]): > 500 nM
